Experimental data: patent publication US20200181226A1 (UNUM THERAPEUTICS, published 2020)

Tests used:
[1] = target: ACTR variant SEQ ID NO: 9; experiment: cell-based or functional assay
[2] = target: T1, ACTR variant SEQ ID NO: 9; experiment: flow cytometry titration of rituximab on T cells expressing ACTR variant SEQ ID NO: 9; bound rituximab detected with a fluorochrome-labeled anti-human Fc antibody
T1 construct: also called ACTR T cells; ACTR-expressing T cells

[3] = target: T1, ACTR variant SEQ ID NO: 9; experiment: apparent affinity; flow cytometry, rituximab titrated on ACTR-expressing T cells, anti-human Fc detection

T1 sequence (chain, as listed by the source mutant limits assumed): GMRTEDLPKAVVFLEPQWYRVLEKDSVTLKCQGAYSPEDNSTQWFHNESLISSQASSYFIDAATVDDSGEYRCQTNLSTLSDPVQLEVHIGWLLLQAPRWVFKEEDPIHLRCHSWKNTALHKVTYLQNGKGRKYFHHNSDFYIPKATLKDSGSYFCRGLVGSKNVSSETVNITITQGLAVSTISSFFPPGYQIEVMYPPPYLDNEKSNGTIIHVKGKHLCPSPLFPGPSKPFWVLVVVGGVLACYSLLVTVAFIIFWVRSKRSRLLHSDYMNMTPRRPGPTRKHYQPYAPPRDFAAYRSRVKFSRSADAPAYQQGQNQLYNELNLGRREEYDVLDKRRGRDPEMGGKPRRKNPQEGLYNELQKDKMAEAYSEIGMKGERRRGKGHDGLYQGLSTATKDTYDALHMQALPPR

- EC50 (read off the curve) [2]: ~700 nM
- Kd [3]: 689 nM
B1: rituximab (antibody, V domains shown)
VH: QVQLQQPGAELVKPGASVKMSCKASGYTFTSYNMHWVKQTPGRGLEWIGAIYPGNGDTSYNQKFKGKATLTADKSSSTAYMQLSSLTSEDSAVYYCARSTYYGGDWYFNVWGAGTTVTVSA
VL: QIVLSQSPAILSASPGEKVTMTCRASSSVSYIHWFQQKPGSSPKPWIYATSNLASGVPVRFSGSGSGTSYSLTISRVEAEDAATYYCQQWTSNPPTFGGGTKLEIK
- EC50 (µg/mL) of cytotoxicity, Raji Target Cells + Rituximab [1]: 0.07 µg/mL
